Three substances from publication PMC9969015 can be followed below.

The assay addresses integrins on T cells. Briefly: flow cytometry on cells. Particulars: read off a plot. A general note: In flow cytometry, cells or beads pass a laser one at a time.

Regarding “S-RBD protein with C-terminal human Fc-tag (receptor-binding domain of SARS-CoV-2 S protein) D405E”, the response was 5 MFI (parent: est. 21) and 6.5 MFI (parent: est. 36).
For the substance “S-RBD protein with C-terminal human Fc-tag (receptor-binding domain of SARS-CoV-2 S protein) D442E”, the response came out at 8 MFI (parent: est. 21) and 9 MFI (parent: est. 36).
Take “S-RBD protein with C-terminal human Fc-tag (receptor-binding domain of SARS-CoV-2 S protein) D586E”: the response is, setting by setting: (parent: est. 21) 2 MFI; (parent: est. 36) 2.5 MFI.
